Test results published in patent publication US20090170763A1 (KENJI KANGAWA, published 2009).
Numbered stars: 1 amine (or outer) side, 2 acyl side, 3 side chain; on linkers, the order of the positions; unused ones are H or OH. Square brackets hold non-standard residues; d marks the D form. Ends that are not written are not given here. * marks the point of attachment. Ethylenediamine = C(CN[*:2])N[*:1]; Palmitoyl = CCCCCCCCCCCCCCCC(=O)*; Lauroyl = CCCCCCCCCCCC(=O)*; Decanoyl = CCCCCCCCCC(=O)*; Octanoyl = CCCCCCCC(=O)*; Hexanoyl = CCCCCC(=O)*; NHBn = c1ccc(CN*)cc1; Butyryl = CCCC(=O)*; Ava = NCCCCC(=O)O; Octyl = CCCCCCCC*

B1: hGhrelin (1-15) (peptide)
peptide: GSS(Octanoyl)FLSPEHQRVQQR
B2: Ghrelin (1-10) (peptide)
peptide: GSS(Octanoyl)FLSPEHQ
B3: rGhrelin (1-11) (peptide)
peptide: GSS(Octanoyl)FLSPEHQK
B4: [Ser^3(Decanoyl)]-rGhrelin (peptide)
peptide: GSS(Decanoyl)FLSPEHQKAQQRKESKKPPAKLQPR
B5: hGhrelin (1-11) (peptide)
peptide: GSS(Octanoyl)FLSPEHQR
B6: [Ser^3(Acetyl)]-rGhrelin (peptide)
peptide: GSS(Ac)FLSPEHQKAQQRKESKKPPAKLQPR
B7: Ghrelin (1-4) (peptide)
peptide: GSS(Octanoyl)F
B8: [Ser^3(Butyryl)]-rGhrelin (peptide)
peptide: GSS(Butyryl)FLSPEHQKAQQRKESKKPPAKLQPR
B9: Ghrelin (1-8) (peptide)
peptide: GSS(Octanoyl)FLSPE
B10: [Ser^3(Palmitoyl)]-rGhrelin (peptide)
peptide: GSS(Palmitoyl)FLSPEHQKAQQRKESKKPPAKLQPR
B11: rGhrelin (1-15) (peptide)
peptide: GSS(Octanoyl)FLSPEHQKAQQR
B12: Ghrelin (1-9) (peptide)
peptide: GSS(Octanoyl)FLSPEH
B13: [Ser^3(Hexanoyl)]-rGhrelin (peptide)
peptide: GSS(Hexanoyl)FLSPEHQKAQQRKESKKPPAKLQPR
B14: [N-Aminopentanoyl,Ser^3(Octyl)]-Ghrelin (3-5)-aminoethylamide (peptide)
peptide: [Ava]S(Octyl)FL-Ethylenediamine
B15: [N-Aminopentanoyl,Ser^3(Octyl)]-Ghrelin (3-5)-methylamide (peptide)
peptide: [Ava]S(Octyl)FL-NHMe
B16: [N-Aminopentanoyl,Ser^3(Octyl)]-Ghrelin (3-5)-benzylamide (peptide)
peptide: [Ava]S(Octyl)FL-NHBn
B17: [N-Aminopentanoyl,Ser^3(Octyl)]-Ghrelin (3-5)-amide (peptide)
peptide: [Ava]S(Octyl)FL-NH2
modifications: N-terminus assumed
SMILES: CCCCCCCCOC[C@H](NC(=O)CCCCN)C(=O)N[C@@H](Cc1ccccc1)C(=O)N[C@@H](CC(C)C)C(N)=O
B18: [N-Aminopentanoyl,Ser^3(Octyl)]-Ghrelin (3-5)-ethylamide (peptide)
peptide: [Ava]S(Octyl)FL-NHEt
B19: Ghrelin (1-8)-amide (peptide)
peptide: GSS(Octanoyl)FLSPE-NH2
modifications: N-terminus assumed
SMILES: CCCCCCCC(=O)OC[C@H](NC(=O)[C@H](CO)NC(=O)CN)C(=O)N[C@@H](Cc1ccccc1)C(=O)N[C@@H](CC(C)C)C(=O)N[C@@H](CO)C(=O)N1CCC[C@H]1C(=O)N[C@@H](CCC(=O)O)C(N)=O
B20: Ghrelin (1-4)-amide (peptide)
peptide: GSS(Octanoyl)F-NH2
modifications: N-terminus assumed
SMILES: CCCCCCCC(=O)OC[C@H](NC(=O)[C@H](CO)NC(=O)CN)C(=O)N[C@@H](Cc1ccccc1)C(N)=O
B21: Ghrelin (1-5) (peptide)
peptide: GSS(Octanoyl)FL
B22: Ghrelin (1-5)-amide (peptide)
peptide: GSS(Octanoyl)FL-NH2
modifications: N-terminus assumed
SMILES: CCCCCCCC(=O)OC[C@H](NC(=O)[C@H](CO)NC(=O)CN)C(=O)N[C@@H](Cc1ccccc1)C(=O)N[C@@H](CC(C)C)C(N)=O
B23: Ghrelin (1-3)-amide (peptide)
peptide: Gly-Ser-Ser(Octanoyl)-NH2
modifications: N-terminus assumed
SMILES: CCCCCCCC(=O)OC[C@H](NC(=O)[C@H](CO)NC(=O)CN)C(N)=O
B24: Ghrelin (1-6)-amide (peptide)
peptide: GSS(Octanoyl)FLS-NH2
modifications: N-terminus assumed
SMILES: CCCCCCCC(=O)OC[C@H](NC(=O)[C@H](CO)NC(=O)CN)C(=O)N[C@@H](Cc1ccccc1)C(=O)N[C@@H](CC(C)C)C(=O)N[C@@H](CO)C(N)=O
B25: Ghrelin (1-7)-amide (peptide)
peptide: GSS(Octanoyl)FLSP-NH2
modifications: N-terminus assumed
SMILES: CCCCCCCC(=O)OC[C@H](NC(=O)[C@H](CO)NC(=O)CN)C(=O)N[C@@H](Cc1ccccc1)C(=O)N[C@@H](CC(C)C)C(=O)N[C@@H](CO)C(=O)N1CCC[C@H]1C(N)=O
B26: [Trp^3]-hGhrelin (peptide)
peptide: GSWFLSPEHQRVQQRKESKKPPAKLQPR
B27: [Phe^3]-hGhrelin (peptide)
peptide: GSFFLSPEHQRVQQRKESKKPPAKLQPR
B28: [Val^3]-hGhrelin (peptide)
peptide: GSVFLSPEHQRVQQRKESKKPPAKLQPR
B29: [Leu^3]-hGhrelin (peptide)
peptide: GSLFLSPEHQRVQQRKESKKPPAKLQPR
B30: [Lys^3]-hGhrelin (peptide)
peptide: GSKFLSPEHQRVQQRKESKKPPAKLQPR
B31: [Ile^3]-hGhrelin (peptide)
peptide: GSIFLSPEHQRVQQRKESKKPPAKLQPR
B32: Ghrelin (1-9)-amide (peptide)
peptide: GSS(Octanoyl)FLSPEH-NH2
modifications: N-terminus assumed
SMILES: CCCCCCCC(=O)OC[C@H](NC(=O)[C@H](CO)NC(=O)CN)C(=O)N[C@@H](Cc1ccccc1)C(=O)N[C@@H](CC(C)C)C(=O)N[C@@H](CO)C(=O)N1CCC[C@H]1C(=O)N[C@@H](CCC(=O)O)C(=O)N[C@@H](Cc1c[nH]cn1)C(N)=O
B33: [Ser^2(Octanoyl)]-Ghrelin (1-9)-amide (peptide)
peptide: GS(Octanoyl)S(Octanoyl)FLSPEH-NH2
B34: [Ser^2(Octanoyl), Ser^3]-Ghrelin (1-9)-amide (peptide)
peptide: GS(Octanoyl)SFLSPEH-NH2
modifications: N-terminus assumed
SMILES: CCCCCCCC(=O)OC[C@H](NC(=O)CN)C(=O)N[C@@H](CO)C(=O)N[C@@H](Cc1ccccc1)C(=O)N[C@@H](CC(C)C)C(=O)N[C@@H](CO)C(=O)N1CCC[C@H]1C(=O)N[C@@H](CCC(=O)O)C(=O)N[C@@H](Cc1c[nH]cn1)C(N)=O
B35: [N-Octanoyl, Ser^3]-Ghrelin (1-9)-amide (peptide)
peptide: Octanoyl-GSSFLSPEH-NH2
SMILES: CCCCCCCC(=O)NCC(=O)N[C@@H](CO)C(=O)N[C@@H](CO)C(=O)N[C@@H](Cc1ccccc1)C(=O)N[C@@H](CC(C)C)C(=O)N[C@@H](CO)C(=O)N1CCC[C@H]1C(=O)N[C@@H](CCC(=O)O)C(=O)N[C@@H](Cc1c[nH]cn1)C(N)=O
B36: [Ser^3]-rat Ghrelin (peptide)
peptide: GSSFLSPEHQKAQQRKESKKPPAKLQPR
B37: [Ser^3(Lauroyl)]-rGhrelin (peptide)
peptide: GSS(Lauroyl)FLSPEHQKAQQRKESKKPPAKLQPR

Each molecule was assayed against rat GHS-R (GHS receptor) expressed on CHO-GHSR62 cells (rat) (UniProt O08725) (assay: cell-based or functional assay).
rat GHS-R (GHS receptor) expressed on CHO-GHSR62 cells (rat), sequence (O08725 whole entry): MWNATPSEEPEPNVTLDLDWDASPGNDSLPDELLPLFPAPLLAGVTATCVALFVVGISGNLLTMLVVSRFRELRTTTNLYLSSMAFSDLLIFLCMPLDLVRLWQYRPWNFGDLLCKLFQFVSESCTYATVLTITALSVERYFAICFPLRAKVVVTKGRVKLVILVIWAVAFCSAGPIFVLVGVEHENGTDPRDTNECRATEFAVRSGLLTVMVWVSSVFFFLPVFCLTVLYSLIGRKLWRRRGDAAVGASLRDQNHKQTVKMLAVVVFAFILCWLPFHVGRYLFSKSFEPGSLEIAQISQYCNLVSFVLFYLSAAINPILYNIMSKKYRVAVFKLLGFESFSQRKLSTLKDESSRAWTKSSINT

| Activity EC50 [nM] | inhibition of the Ca-releasing activity of ghrelin [µM] | EC50 value [nM] | Molecule |
| --- | --- | --- | --- |
| 1600 | – | – | [N-Aminopentanoyl,^DSer^3(Octyl),^DPhe^4,Lys^5]-Ghrelin (3-5)-amide (peptide) |
| 12 | – | – | [N-Aminopentanoyl,Ser^3(Octyl),Lys^5]-Ghrelin (3-5)-amide (peptide) |
| – | 100 | – | [D-Lys 3]-GHRP-6 (peptide) |
| 2.5 | – | 2.5 | [Aib^1,His^2,^DNal^3,^DPhe^4,Lys^5]-Ghrelin (1-5)-amide (peptide) |

Each molecule was assayed against T1, rat GHS-R (GHS receptor) expressed on CHO-GHSR62 cells (rat, UniProt O08725 1-364) (assay: cell-based or functional assay).
T1 sequence (O08725 whole entry): as above

| Ca-releasing activity (EC50, nM) [nM] | Molecule |
| --- | --- |
| 7 | B1 |
| 19 | B2 |
| 15 | B3 |
| 2.6 | B4 |
| 15 | B5 |
| 780 | B6 |
| 480 | B7 |
| 280 | B8 |
| 100 | B9 |
| 3.1 | B10 |
| 8.6 | B11 |
| 38 | B12 |
| 16 | B13 |

Biological target: T1, rat GHS-R (GHS receptor) expressed on …
Experiment: cell-based or functional assay
Remark: another data set of the same source

| Activity EC50 [nM] | Molecule |
| --- | --- |
| 3.5 | B14 |
| 12 | B15 |
| 98 | B16 |
| 11 | B17 |
| 22 | B18 |

Biological target: T1, rat GHS-R (GHS receptor) expressed on …
Experiment: cell-based or functional assay
Remark: another data set of the same source

| Ca-releasing activity EC50 [nM] | Molecule |
| --- | --- |
| 13 | B19 |
| 19 | B2 |
| 160 | B20 |
| 15 | B3 |
| 68 | B21 |
| 6.2 | B22 |
| 15 | B5 |
| 480 | B7 |
| > 10000 | B23 |
| 4.8 | B24 |
| 100 | B9 |
| 2.6 | B25 |
| 38 | B12 |

What follows are molecules tested against amino-terminal antibody (anti-[C-Cys]-rat ghrelin [1-11] antigen) (assay: radioimmunoassay: inhibition of binding of radioisotope-labeled rat ghrelin to the amino-terminal antibody).

| cross-reactivity [%] | Molecule |
| --- | --- |
| 100 | human ghrelin (peptide) |
| 20 | B4 |
| 0.3 | B13 |

Biological target: T1, rat GHS-R (GHS receptor) expressed on …
Experiment: cell-based or functional assay
Remark: another data set of the same source

| Activity EC50 [nM] | Molecule |
| --- | --- |
| 31 | B26 |
| 2000 | B27 |
| 1600 | B28 |
| 4400 | B29 |
| 120 | B30 |
| > 10000 | B31 |

Biological target: T1, rat GHS-R (GHS receptor) expressed on …
Experiment: cell-based or functional assay
Remark: another data set of the same source

| Ca-releasing activity EC50 [nM] | Molecule |
| --- | --- |
| 5.4 | B32 |
| 1400 | B33 |
| 1100 | B34 |
| > 10000 | B35 |

Biological target: T1, rat GHS-R (GHS receptor) expressed on …
Experiment: cell-based or functional assay
Remark: another data set of the same source

| Ca-releasing activity EC50 [nM] | Molecule |
| --- | --- |
| 7 | B1 |
| 8.6 | B11 |

Biological target: T1, rat GHS-R (GHS receptor) expressed on …
Experiment: cell-based or functional assay
Remark: another data set of the same source

| Ca-releasing activity EC50 [nM] | Molecule |
| --- | --- |
| 1.7 | B4 |
| 780 | B6 |
| 3500 | B36 |
| 2.4 | B37 |
| 280 | B8 |
| 6.5 | B10 |
| 16 | B13 |
